The results in this text go back to US20110313230A1.

Some results are limits rather than exact numbers.

For assay [1], the target named is wild-type EGFR (human) (UniProt P00533). Put plainly: immunohistochemistry, glioblastoma pre-typed: EGFR amplified, no de2-7 EGFR expression.
For assay [2] the target is unchanged. Put plainly: Scatchard, 125I-528 on A431 cells.
For assay [3], the target named is de2-7 EGFR (human) (UniProt P00533). As to the kind of experiment: immunohistochemistry, glioblastoma pre-typed: EGFR amplified, de2-7 EGFR expressed.

On to mAb528 (antibody), for which the percent of immunoreactive cells in assay [1] and in assay [3] was above 75% each time. For the same substance, in assay [2], the receptors per cell (receptors per cell) was found to be 2e+06.
